# According to the Immune Epitope Database (IEDB):
# Experiments:
# [1] = biological target: HLA-A*03:01; assay: IEDB peptide-MHC binding, purified MHC/competitive/radioactivity; filed as Kd, often an IC50 or EC50 that approximates it; ≥ and ≤ were set here for values at or beyond the usual limits of such assays
# [2] = biological target: HLA-A*30:01; assay: as above
# [3] = biological target: HLA-A*32:01; assay: as above
# [4] = biological target: HLA-A*11:01; assay: as above
# [5] = biological target: HLA-A*69:01; assay: IEDB peptide-MHC binding, purified MHC/direct/fluorescence; filed as Kd, often an IC50 or EC50 that approximates it; ≥ and ≤ were set here for values at or beyond the usual limits of such assays
# [6] = biological target: HLA-A*02:01; assay: as above
# [7] = biological target: HLA-B*07:02; assay: as above
# [8] = biological target: HLA-A*01:01; assay: IEDB peptide-MHC binding, purified MHC/competitive/radioactivity; filed as Kd, often an IC50 or EC50 that approximates it; ≥ and ≤ were set here for values at or beyond the usual limits of such assays
# [9] = biological target: HLA-A*29:02; assay: as above; details: source organism: Mammarenavirus whitewaterense
# [10] = biological target: HLA-A*26:01; assay: as above
# [11] = biological target: HLA-A*30:02; assay: as above
# [12] = biological target: HLA-A*24:02; assay: IEDB peptide-MHC binding, purified MHC/competitive/fluorescence; ≥ and ≤ were set here for values at or beyond the usual limits of such assays
# [13] = biological target: HLA-A*02:01; assay: as above
# [14] = biological target: HLA-A*68:01; assay: IEDB peptide-MHC binding, purified MHC/competitive/radioactivity; filed as Kd, often an IC50 or EC50 that approximates it; ≥ and ≤ were set here for values at or beyond the usual limits of such assays
# [15] = biological target: HLA-A*23:01; assay: as above; details: source organism: Dengue virus 2 Jamaica/1409/1983
# [16] = biological target: HLA-A*02:03; assay: as above; details: source organism: SARS coronavirus Tor2
# [17] = biological target: HLA-A*02:02; assay: as above; details: source organism: SARS coronavirus Tor2
# [18] = biological target: HLA-A*02:06; assay: as above; details: source organism: SARS coronavirus Tor2
# [19] = biological target: HLA-A*11:01; assay: IEDB peptide-MHC binding, purified MHC/direct/fluorescence; filed as Kd, often an IC50 or EC50 that approximates it; ≥ and ≤ were set here for values at or beyond the usual limits of such assays
# [20] = biological target: HLA-A*01:01; assay: as above
# [21] = biological target: HLA-B*15:01; assay: as above
# [22] = biological target: HLA-B*35:01; assay: IEDB peptide-MHC binding, purified MHC/competitive/radioactivity; filed as Kd, often an IC50 or EC50 that approximates it; ≥ and ≤ were set here for values at or beyond the usual limits of such assays
# [23] = biological target: HLA-A*03:01; assay: IEDB peptide-MHC binding, purified MHC/direct/fluorescence; filed as Kd, often an IC50 or EC50 that approximates it; ≥ and ≤ were set here for values at or beyond the usual limits of such assays
# [24] = biological target: HLA-B*58:01; assay: as above; details: source organism: Homo sapiens
# [25] = biological target: HLA-A*31:01; assay: IEDB peptide-MHC binding, purified MHC/competitive/radioactivity; filed as Kd, often an IC50 or EC50 that approximates it; ≥ and ≤ were set here for values at or beyond the usual limits of such assays
# [26] = biological target: HLA-A*31:01; assay: IEDB peptide-MHC binding, purified MHC/direct/fluorescence; filed as Kd, often an IC50 or EC50 that approximates it; ≥ and ≤ were set here for values at or beyond the usual limits of such assays
# [27] = biological target: HLA-B*27:05; assay: as above; details: source organism: Mammarenavirus juninense
# [28] = biological target: HLA-A*33:01; assay: IEDB peptide-MHC binding, purified MHC/competitive/radioactivity; filed as Kd, often an IC50 or EC50 that approximates it; ≥ and ≤ were set here for values at or beyond the usual limits of such assays; details: source organism: Mammarenavirus machupoense
# [29] = source organism: Dengue virus 3 Martinique/1243/1999
# [30] = source organism: Vaccinia virus WR
# [31] = source organism: Dengue virus 1 Brazil/97-11/1997
# [32] = source organism: Marburg virus - Musoke, Kenya, 1980
# [33] = source organism: Mammarenavirus whitewaterense
# [34] = source organism: Dengue virus 2 Jamaica/1409/1983
# [35] = source organism: Zaire ebolavirus
# [36] = source organism: Burkholderia mallei
# [37] = source organism: Vaccinia virus
# [38] = source organism: Dengue virus 4 Philippines/H241/1956
# [39] = source organism: Sudan ebolavirus
# [40] = source organism: Dengue virus 3 Singapore/8120/1995
# [41] = source organism: Orthohantavirus hantanense
# [42] = source organism: Human herpesvirus 4 strain B95-8
# [43] = source organism: Mammarenavirus machupoense
# [44] = source organism: Vaccinia virus Copenhagen
# [45] = source organism: Francisella tularensis subsp. tularensis FSC198
# [46] = source organism: Vibrio vulnificus
sequence,measurement,setting,value
AIKVLKGFK,Kd,[1]; [29],0.157 µM
same,Kd,[2]; [29],1.39 µM
AIMMILSTI,Kd,[3]; [30],0.00245 µM
ALLATSIFK,Kd,[1]; [31],0.00412 µM
same,Kd,[4]; [31],0.0234 µM
same,Kd,[2]; [31],0.544 µM
ALLTGSYTI,Kd,[5]; [32],6.66 µM
same,Kd,[6]; [32],0.0005 µM
APTGDLPRA,Kd,[5]; source organism: Homo sapiens,6.78 µM
same,Kd,[7]; source organism: Homo sapiens,5.52 µM
same,Kd,[6]; source organism: Homo sapiens,≥ 21.8 µM
ATARSSPEK,Kd,[2]; [30],0.000584 µM
ATGTDMPGGY,Kd,[2]; [33],≥ 63.6 µM
same,Kd,[8]; [33],0.033 µM
same,Kd,[9],8.85 µM
same,Kd,[3]; [33],≥ 69.9 µM
same,Kd,[10]; [33],≥ 69.7 µM
same,Kd,[11]; [33],0.531 µM
ATVTGGIFLF,Kd,[8]; [34],2.03 µM
same,Kd,[10]; [34],2.51 µM
AVPVHWVPTS,Kd,[2]; [29],10.5 µM
AWIPYFGPA,IC50,[12]; [35],≥ 81.1 µM
same,IC50,[13]; [35],20 µM
AWNIWEVEDY,Kd,[11]; [31],1.88 µM
CLRCSKLNL,Kd,[2]; [30],0.482 µM
DAAAPLPPV,Kd,[5]; [36],0.0008 µM
same,Kd,[6]; [36],≥ 20 µM
DGIRGFPRC,IC50,[13]; [35],≥ 126 µM
DKLSSTNQL,IC50,[12]; [35],16.2 µM
DVFFTPPEK,Kd,[2]; [34],1.3 µM
same,Kd,[14]; [34],0.00359 µM
EEINNQLLL,IC50,[12]; [37],57.8 µM
EFLRYLLFG,IC50,[12]; [37],17.8 µM
EIQLTDYGAL,Kd,[10]; [31],5.58 µM
ELSFTVVSN,IC50,[12]; [35],≥ 119 µM
same,IC50,[13]; [35],≥ 220 µM
EPIVGAETF,Kd,[7]; source organism: Human immunodeficiency virus 1,5.64 µM
ETTKRDLGM,Kd,[10]; [29],1.45 µM
EVEDYGFGVF,Kd,[15],1 µM
same,Kd,[10]; [34],0.132 µM
FLNEDHWFGR,Kd,[3]; [38],1.56 µM
FNYLFGGFS,IC50,[13]; source organism: Variola virus,51.6 µM
FRKSSFFVW,IC50,[12]; [39],2.42 µM
FTPQFLLQL,IC50,[12]; [35],0.814 µM
same,IC50,[13]; [35],0.292 µM
FVDGVPFVV,Kd,[16],0.0859 µM
same,Kd,[17],0.00962 µM
same,Kd,[18],0.000908 µM
same,Kd,[5]; source organism: SARS-CoV1,0.0233 µM
same,Kd,[19]; source organism: SARS-CoV1,≥ 23.1 µM
same,Kd,[6]; source organism: SARS-CoV1,0.124 µM
same,Kd,[20]; source organism: SARS-CoV1,1.41 µM
GKIIHEWCCR,Kd,[3]; [31],≥ 51.6 µM
GLVSKFMSN,IC50,[13]; [30],13.8 µM
GMHHLYREY,Kd,[21]; source organism: Mammarenavirus juninense,0.135 µM
GNPGRFWNTT,Kd,[3]; [34],9.9 µM
GPILTLWEGN,Kd,[3]; source organism: Dengue virus 4 Dominica/814669/1981,0.504 µM
GQLKLNWFKK,Kd,[3]; [34],2.07 µM
GRQTQSRPI,IC50,[12]; [35],≥ 204 µM
GSKASCVLK,Kd,[2]; [30],0.265 µM
GTNGISNGI,Kd,[3]; [30],0.0201 µM
GVTGILQLP,IC50,[13]; [35],63.5 µM
HAHWTEAKM,Kd,[22]; [31],0.285 µM
HHRRTDNDS,IC50,[13]; [35],≥ 72.1 µM
HILGPDCCI,IC50,[12]; [35],≥ 135 µM
same,IC50,[13]; [35],66.4 µM
IADMGHLKY,Kd,[23]; source organism: Homo sapiens,3.03 µM
same,Kd,[19]; source organism: Homo sapiens,2.8 µM
same,Kd,[24],2 µM
same,Kd,[21]; source organism: Homo sapiens,4.09 µM
IAVGMVTLY,Kd,[22]; [31],0.0135 µM
IDSMFLMTA,IC50,[13]; source organism: Variola virus,28.7 µM
IGVLLTWIGL,Kd,[3]; [29],≥ 33 µM
IHHASAPLT,IC50,[13]; [35],≥ 378 µM
INQIIHDFI,IC50,[12]; [39],2.77 µM
INVEYRFLV,IC50,[12]; [30],5.73 µM
same,IC50,[13]; [30],1.65 µM
IRYQATGFG,IC50,[12]; [35],54.4 µM
ISGQSPART,IC50,[13]; [35],≥ 137 µM
ITVIDLEPIS,Kd,[2]; [38],0.105 µM
KALKINWYK,Kd,[1]; [40],0.0841 µM
same,Kd,[4]; [40],0.0817 µM
same,Kd,[25]; [40],0.00011 µM
same,Kd,[2]; [40],0.36 µM
KCYGVSATK,Kd,[26]; source organism: SARS-CoV1,3.52 µM
KLGLITNTI,IC50,[13]; [35],1.92 µM
KLRCRNTEA,Kd,[2]; [30],0.0142 µM
KQWFLDLPLP,Kd,[2]; [31],9.59 µM
KTKIDIIFA,Kd,[2]; [37],0.01 µM
KTMTTVYIL,Kd,[3]; [30],0.0139 µM
KVKYEGAGA,Kd,[2]; [38],0.123 µM
KVVRVQRPTP,Kd,[2]; [34],0.122 µM
KWKRQLNSL,Kd,[2]; [38],0.29 µM
LESRFTPQF,IC50,[12]; [35],16.2 µM
LFDLDEDDE,IC50,[13]; [35],≥ 212 µM
LIEWAMEKS,IC50,[13]; [37],≥ 408 µM
LINFLLRSI,Kd,[3]; [30],0.254 µM
LLYFKVFGI,Kd,[3]; [30],≥ 37.4 µM
LNDTIHLHQ,IC50,[12]; [39],34 µM
LPEYGTLGLE,Kd,[22]; [29],4.48 µM
LTAGLSVQQ,IC50,[13]; [35],≥ 298 µM
LTILIRTGLL,Kd,[10]; [34],8.47 µM
LTKRFSLGM,Kd,[10]; [34],≥ 31.8 µM
LVKLHSGKDV,Kd,[2]; [31],5.94 µM
MALIVSIFK,Kd,[2]; [37],0.896 µM
MLTPINEEA,IC50,[13]; [35],0.78 µM
MLYILGLFK,Kd,[23]; [41],0.102 µM
same,Kd,[19]; [41],0.0186 µM
MPPLRFLGED,Kd,[22]; [38],15.2 µM
NSDEQSLEY,Kd,[20]; source organism: Francisella tularensis subsp. holarctica LVS,≤ 0.001 µM
PFGDSYIII,Kd,[15],3.96 µM
QPRAPIRPI,Kd,[5]; [42],2.54 µM
same,Kd,[7]; [42],0.161 µM
QRKKTGKPSI,Kd,[2]; [29],1.15 µM
RDKFRKSSF,IC50,[12]; [39],35.7 µM
RLLLNRFTM,Kd,[3]; [29],0.0332 µM
RRVAHSSLY,Kd,[27],0.17 µM
RTAPPSLYGR,Kd,[1]; [43],0.0162 µM
same,Kd,[4]; [43],0.00892 µM
same,Kd,[25]; [43],0.00159 µM
same,Kd,[2]; [43],0.759 µM
same,Kd,[14]; [43],0.0102 µM
same,Kd,[28],2.39 µM
RTENFVLSI,Kd,[3]; [30],0.00162 µM
RTRYLPSLV,Kd,[2]; [44],0.000485 µM
RTSFAFQAI,Kd,[3]; [30],0.00378 µM
SFSSGWSPR,Kd,[23]; [45],≥ 20 µM
same,Kd,[26]; [45],0.0034 µM
SSECQGEML,Kd,[20]; source organism: Homo sapiens,4.76 µM
SSNNVSSSI,Kd,[3]; [44],0.155 µM
STFIMLEGE,IC50,[13]; [44],≥ 434 µM
STINICLPY,Kd,[3]; [30],0.0315 µM
SWLITSGFR,Kd,[23]; source organism: Cowpox virus,≥ 20 µM
same,Kd,[26]; source organism: Cowpox virus,1.1 µM
TDFHERPVI,IC50,[12]; source organism: Variola virus,0.408 µM
TFKDESIFI,IC50,[12]; [44],0.328 µM
TGFDWITDY,Kd,[11]; [38],1.6 µM
TITETAATI,IC50,[12]; [39],48.4 µM
same,IC50,[13]; [39],44.9 µM
TQMGGWFQK,Kd,[23]; [46],0.848 µM
same,Kd,[19]; [46],0.0439 µM
YAQMWSLMY,Kd,[11]; [29],0.0088 µM
YRFLVINRL,IC50,[12]; [30],0.9 µM
